Here are results for one molecule from patent publication US20210122814A1 (SCHOLAR ROCK, published 2021).

One test concerns the target LTBP:proTGFβ1 (human). Briefly: cell-based or functional assay.
The target of test [1] is T1, recombinant human GARP-proTGFβ1 complex (human, UniProt P01137 30-390; Q14392 20-627).
T1 construct: also called hGARP-proTGFβ1; hGARP
Briefly: MSD-SET (solution equilibrium titration), % free antigen against Ab6 concentration. The protocol:
(§1) MSD-SET assays were performed to measure affinities of the antibodies at equilibrium. Briefly, each test antibody was diluted 3-5 fold and samples were mixed with biotinylated antigen in a 48-well dish. The SET samples were equilibrated for 20-24 hours at room temperature. Meanwhile, a capture plate was coated with IgG (20 nM) and incubated overnight at 4° C. or 30 minutes at room temperature, followed by a blocking step with 5% BSA. After the capture plate was washed three times, SET samples were added and incubated for 150 seconds. The plate was washed once to remove unbound complexes. 250 ng/ml SA-Sulfotag was added then washed 3 times. 2× Read Buffer was added, and signals from the labeled bound complexes were read with the use of QuickPlex™ SQ 120 instrument.
(§2) As an example, MSD standard plates (MSD) were coated with a 20 nM solution of monoclonal antibody in PBS for 30 min at room temperature or overnight at 4° C. […] After 20-24 hours of equilibration, the antibody-coated plate was blocked with Blocking Buffer A (MSD) for 30 minutes at room temperature and washed with wash buffer (PBS, 0.1% BSA, 0.05% Tween-20) before adding the equilibrated antibody-antigen complexes to the plate for exactly 2.5 minutes. […] After washing with wash buffer, plates were read in MSD read buffer (MSD) using the MESO QuickPlex SQ 120 (MSD). […]

Test [2] has as its target T2, recombinant human LRRC33-proTGFβ1 complex (human, UniProt P01137 30-390; Q86YC3 19-650).
T2 construct: also called hLRRC33-proTGFβ1; hLRRC33
The description is as above. The protocol: as §1, §2

T1 sequence (P01137 30-390, chain 1 of 2): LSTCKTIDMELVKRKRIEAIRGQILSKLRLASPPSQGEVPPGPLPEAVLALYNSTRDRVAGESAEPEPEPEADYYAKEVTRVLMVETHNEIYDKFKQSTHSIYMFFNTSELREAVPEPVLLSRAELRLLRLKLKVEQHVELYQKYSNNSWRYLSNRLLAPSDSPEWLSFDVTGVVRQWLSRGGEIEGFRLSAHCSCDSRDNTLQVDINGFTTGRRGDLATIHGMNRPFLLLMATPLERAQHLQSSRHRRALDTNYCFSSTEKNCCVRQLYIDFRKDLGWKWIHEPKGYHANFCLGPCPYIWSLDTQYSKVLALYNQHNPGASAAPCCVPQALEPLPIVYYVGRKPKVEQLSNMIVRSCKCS
T1 sequence (Q14392 20-627, chain 2 of 2): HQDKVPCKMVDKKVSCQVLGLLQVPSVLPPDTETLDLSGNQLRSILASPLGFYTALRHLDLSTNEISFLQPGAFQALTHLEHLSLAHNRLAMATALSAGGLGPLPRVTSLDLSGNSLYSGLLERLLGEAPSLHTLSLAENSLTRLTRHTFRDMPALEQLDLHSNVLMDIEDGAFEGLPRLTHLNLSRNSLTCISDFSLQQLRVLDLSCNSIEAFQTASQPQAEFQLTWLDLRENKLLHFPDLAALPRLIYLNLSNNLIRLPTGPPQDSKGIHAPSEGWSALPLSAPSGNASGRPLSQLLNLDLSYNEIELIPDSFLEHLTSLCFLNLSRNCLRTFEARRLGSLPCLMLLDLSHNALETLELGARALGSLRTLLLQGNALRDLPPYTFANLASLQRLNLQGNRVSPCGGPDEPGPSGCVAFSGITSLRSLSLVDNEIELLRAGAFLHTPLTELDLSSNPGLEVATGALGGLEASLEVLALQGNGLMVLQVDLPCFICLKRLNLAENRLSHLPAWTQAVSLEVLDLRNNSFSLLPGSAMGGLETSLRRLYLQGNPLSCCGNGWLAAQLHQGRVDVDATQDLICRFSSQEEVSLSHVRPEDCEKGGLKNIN
T2 sequence (P01137 30-390 limits assumed, chain 1 of 2): as the sequence (P01137 30-390, chain 1 of 2) above
T2 sequence (Q86YC3 other isoform, or with tags, fused parts or gaps limits assumed, chain 2 of 2): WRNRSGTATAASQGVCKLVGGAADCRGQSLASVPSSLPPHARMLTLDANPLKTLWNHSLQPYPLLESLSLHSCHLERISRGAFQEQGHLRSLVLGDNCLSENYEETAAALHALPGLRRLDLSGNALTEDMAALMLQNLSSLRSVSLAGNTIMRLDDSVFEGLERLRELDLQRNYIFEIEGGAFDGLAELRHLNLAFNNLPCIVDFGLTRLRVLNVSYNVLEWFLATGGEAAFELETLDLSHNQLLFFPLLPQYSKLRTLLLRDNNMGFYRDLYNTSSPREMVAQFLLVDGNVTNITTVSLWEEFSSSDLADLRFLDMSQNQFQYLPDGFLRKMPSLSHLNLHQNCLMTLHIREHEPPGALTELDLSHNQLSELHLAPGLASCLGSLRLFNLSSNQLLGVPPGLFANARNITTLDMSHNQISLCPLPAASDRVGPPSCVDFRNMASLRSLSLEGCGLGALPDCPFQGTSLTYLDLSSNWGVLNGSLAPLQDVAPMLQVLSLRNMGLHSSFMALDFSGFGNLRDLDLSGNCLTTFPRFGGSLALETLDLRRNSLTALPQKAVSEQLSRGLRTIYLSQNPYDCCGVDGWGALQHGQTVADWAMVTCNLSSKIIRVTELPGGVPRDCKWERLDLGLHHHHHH

B1: Ab6 (antibody, V domains shown)
VH: EVQLVESGGGLVQPGGSLRLSCTASGFTFSSFSMDWVRQAPGKGLEWVSYISPSADTIYYADSVKGRFTISRDNAKNTLYLQMNSLRAEDTAVYYCARGVLDYGDMLMPWGQGTLVTVSS
VL: DIQMTQSPSSLSASVGDRVTITCQASQDITNYLNWYQQKPGKAPKLLIYDASNLETGVPSRFSGSGSGTDFTFTISSLQPEDIATYYCQQADNHPPWTFGGGTKVEIKR
Turning to B1, the “IC50 (read off the curve)” value in the test with LTBP:proTGFβ1 is about 1 nM; in test [1], about 0.03 nM; in test [2], about 0.06 nM.
